Laboratory results as given in patent US20230265151A1, “GIP/GLP1 CO-AGONIST COMPOUNDS” (priority 2020, published 2023).

Legend:
Experiment in all cases: cell-based or functional assay
[1] = target: human glucagon receptor (human) (UniProt P47871)
[2] = target: hGLP-1R (Homo sapiens, UniProt P43220)
[3] = target: T1, human GIP receptor (human) (UniProt P48546)
T1 sequence (looked up): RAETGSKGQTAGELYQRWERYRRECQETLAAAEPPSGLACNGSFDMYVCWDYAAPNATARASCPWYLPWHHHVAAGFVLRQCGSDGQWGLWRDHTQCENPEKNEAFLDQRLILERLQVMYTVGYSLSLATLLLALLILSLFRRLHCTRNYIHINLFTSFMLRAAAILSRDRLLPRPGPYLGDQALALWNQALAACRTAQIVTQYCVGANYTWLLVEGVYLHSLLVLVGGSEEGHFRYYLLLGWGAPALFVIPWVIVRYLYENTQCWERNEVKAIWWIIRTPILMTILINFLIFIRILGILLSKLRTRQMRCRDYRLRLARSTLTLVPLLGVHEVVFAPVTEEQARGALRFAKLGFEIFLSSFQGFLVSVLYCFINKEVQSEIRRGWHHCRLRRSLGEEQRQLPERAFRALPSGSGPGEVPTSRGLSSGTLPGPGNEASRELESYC

[4] = target: human GLP-1 receptor (human, UniProt P43220 24-463)
[5] = target: T2, human GIP receptor (human, UniProt P48546 22-466)
T2 sequence (looked up): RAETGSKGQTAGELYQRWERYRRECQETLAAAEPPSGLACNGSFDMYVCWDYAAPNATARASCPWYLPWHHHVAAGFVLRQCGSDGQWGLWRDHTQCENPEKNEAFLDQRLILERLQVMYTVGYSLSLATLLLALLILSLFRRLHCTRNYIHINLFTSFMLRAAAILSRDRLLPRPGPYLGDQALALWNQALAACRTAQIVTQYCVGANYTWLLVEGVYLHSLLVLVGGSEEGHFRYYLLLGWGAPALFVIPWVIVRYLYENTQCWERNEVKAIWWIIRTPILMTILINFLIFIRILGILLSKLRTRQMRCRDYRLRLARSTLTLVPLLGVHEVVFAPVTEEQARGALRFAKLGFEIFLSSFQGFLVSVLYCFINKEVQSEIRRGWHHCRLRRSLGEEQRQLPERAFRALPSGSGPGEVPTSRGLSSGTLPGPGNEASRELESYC

[6] = target: T3, human GIP receptor (human, UniProt P48546 22-466); remark: listed apart in the source
T3 sequence (looked up): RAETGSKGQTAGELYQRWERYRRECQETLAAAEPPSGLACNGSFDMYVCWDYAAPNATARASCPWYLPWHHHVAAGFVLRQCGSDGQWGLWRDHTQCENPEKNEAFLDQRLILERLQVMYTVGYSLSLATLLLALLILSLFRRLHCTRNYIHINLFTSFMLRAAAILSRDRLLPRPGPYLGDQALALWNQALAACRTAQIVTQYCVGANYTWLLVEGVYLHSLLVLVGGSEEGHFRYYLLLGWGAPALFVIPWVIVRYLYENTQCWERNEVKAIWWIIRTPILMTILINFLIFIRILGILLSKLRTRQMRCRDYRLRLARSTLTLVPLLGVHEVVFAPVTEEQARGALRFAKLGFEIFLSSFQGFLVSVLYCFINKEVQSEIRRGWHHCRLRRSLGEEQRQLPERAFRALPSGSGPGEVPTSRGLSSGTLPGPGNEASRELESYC

[7] = target: human GLP-1 receptor (human, UniProt P43220 24-463); remark: listed apart in the source

Molecule	cAMP EC50 (1.0% HSA) [1] [nM]	cAMP EC50 (1.0% HSA) [2] [nM]	cAMP Emax (1.0% HSA) [2] [%]	cAMP EC50 (1.0% HSA) [3] [nM]	cAMP Emax (1.0% HSA) [3] [%]	cAMP EC50 (1.0% HSA) [4] [nM]	cAMP EC50 (1.0% HSA) [5] [nM]	cAMP EC50 [1] [nM]	cAMP EC50 [2] [nM]	cAMP Emax [2] [%]	cAMP EC50 [3] [nM]	cAMP Emax [3] [%]	cAMP EC50 (1.0% HSA) [6] [nM]	cAMP Emax (1.0% HSA) [6] [%]	cAMP EC50 (1.0% HSA) [7] [nM]
Y-Aib-EGT-αMeF(2F)-TSD-4Pal-SI-αMeL-LD-Orn-K((2-[2-(2-Amino-ethoxy)-ethoxy]-acetyl)2-(γ-Glu)-(4-(4-tert-butylphenyl)butanoyl))AQ-Aib-EFIE-K((2-[2-(2-Amino-ethoxy)-ethoxy]-acetyl)2-(γ-Glu)-(4-(4-tert-butylphenyl)butanoyl))…-NH2 (peptide)	> 9950	5.79	102	0.0831	92.4	–	–	–	–	–	–	–	–	–	–
Y-Aib-EGT-αMeF(2F)-TSD-4Pal-SI-αMeL-LD-Orn-K((εK)-(εK)-(γ-Glu)-CO-(CH2)12-CO2H)AQ-Aib-EFI-(D-Glu)-αMeY-LIEGGK((εK)-(εK)-(γ-Glu)-CO-(CH2)12-CO2H)-NH2 (peptide)	> 9950	18	109	0.939	79.3	–	–	–	–	–	–	–	–	–	–
Y-Aib-EGT-αMeF(2F)-TSD-4Pal-SI-αMeL-LD-Orn-IAQ-Aib-EFIK((2-[2-(2-Amino-ethoxy)-ethoxy]-acetyl)2-(γ-Glu)-CO-(CH2)12-CO2H)-αMeY-…((2-[2-(2-Amino-ethoxy)-ethoxyl-acetyl)2-(γ-Glu)-CO-(CH2)12-CO2H)-NH2 (peptide)	> 9950	40.1	98.8	3.55	95.9	–	–	–	–	–	–	–	–	–	–
Y-Aib-EGT-αMeF(2F)-TSD-4Pal-SI-αMeL-LD-Orn-K((2-[2-(2-Amino-ethoxy)-ethoxy]-acetyl)2-(γ-Glu)-CO-(CH2)12-CO2H)AQ-Aib-EFI-(D-Glu)-αMeY-LIEGGK((2-[2-(2-Amino-ethoxy)-ethoxy]-acetyl)2-(γ-Glu)-CO-(CH2)12-CO2H)SSG-NH2 (peptide)	> 9950	66.6	97.3	1.22	75.5	–	–	–	–	–	–	–	–	–	–
Y-Aib-EGT-αMeF(2F)-TSD-4Pal-SI-αMeL-LD-Orn-K((2-[2-(2-Amino-ethoxy)-ethoxy]-acetyl)2-(γ-Glu)-(4-(4-tert-butylphenyl)butanoyl))AQ-Aib-EFI-(D-Glu)-K((2-[2-(2-Amino-ethoxy)-ethoxy]-acetyl)2-(γ-Glu)-(4-(4-tert-butylphenyl)butanoyl))…-NH2 (peptide)	> 9950	12	104	0.0417	91.9	–	–	–	–	–	–	–	–	–	–
Y-Aib-EGT-αMeF(2F)-TSD-4Pal-SI-αMeL-LD-Orn-K((2-[2-(2-Amino-ethoxy)-ethoxy]-acetyl)2-(γ-Glu)-CO-(CH2)12-CO2H)AQ-Aib-EFI-(D-Glu)-αMeY-LIEGGK((2-[2-(2-Amino-ethoxy)-ethoxy]-acetyl)2-(γ-Glu)-CO-(CH2)12-CO2H)-NH2 (peptide)	> 9950	119	87.8	2.46	81.2	–	–	–	–	–	–	–	–	–	–
Y-Aib-EGT-αMeF(2F)-TSD-4Pal-SI-αMeL-LD-Orn-IAQ-Aib-K((2-[2-(2-Amino-ethoxy)-ethoxy]-acetyl)2-CO-(CH2)12-CO2H)FIK((2-[2-(2-Amino-ethoxy)-ethoxy]-acetyl)2-CO-(CH2)12-CO2H)-αMeY-…-NH2 (peptide)	> 9950	13.1	105	0.866	86.2	–	–	–	–	–	–	–	–	–	–
Y-Aib-EGT-αMeF(2F)-TSD-4Pal-SI-αMeL-LD-Orn-K((2-[2-(2-Amino-ethoxy)-ethoxy]-acetyl)2-(γ-Glu)-CO-(CH2)12-CO2H)AQ-Aib-EFI-(D-Glu)-αMeY-LIEGGK((2-[2-(2-Amino-ethoxy)-ethoxy]-acetyl)2-(γ-Glu)-CO-(CH2)12-CO2H)SSG-Orn-PPP-Orn-NH2 (peptide)	> 9950	34.6	102	1.25	96.5	–	–	–	–	–	–	–	–	–	–
Y-Aib-EGT-αMeF(2F)-TSD-4Pal-SI-αMeL-LD-Orn-K((2-[2-(2-Amino-ethoxy)-ethoxy]-acetyl)2-(γ-Glu)-CO-(CH2)12-CO2H)AQ-Aib-EFIK((2-[2-(2-Amino-ethoxy)-ethoxy]-acetyl)2-(γ-Glu)-CO-(CH2)12-CO2H)-αMeY-LIEG-Orn-NH2 (peptide)	> 9950	28.9	112	1.55	82.8	–	–	–	–	–	–	–	–	–	–
Y-Aib-EGT-αMeF(2F)-TSD-4Pal-SI-αMeL-LD-Orn-K((2-[2-(2-Amino-ethoxy)-ethoxy]-acetyl)2-(εK)-CO-(CH2)12-CO2H)AQ-Aib-EFI-(D-Glu)-αMeY-LIEGGK((2-[2-(2-Amino-ethoxy)-ethoxy]-acetyl)2-(εK)-CO-(CH2)12-CO2H)-NH2 (peptide)	> 9950	11.3	103	0.335	86.2	–	–	–	–	–	–	–	–	–	–
Y-Aib-EGT-αMeF(2F)-TSD-4Pal-SI-αMeL-LD-Orn-K((2-[2-(2-Amino-ethoxy)-ethoxy]-acetyl)2-(γ-Glu)-CO-(CH2)12-CO2H)AQ-Aib-EFIK((2-[2-(2-Amino-ethoxy)-ethoxy]-acetyl)2-(γ-Glu)-CO-(CH2)12-CO2H)-αMeY-…-NH2 (peptide)	> 9950	19.1	106	1.37	89	–	–	–	–	–	–	–	–	–	–
Y-Aib-EGT-αMeF(2F)-TSD-4Pal-SI-αMeL-LD-Orn-K((2-[2-(2-Amino-ethoxy)-ethoxy]-acetyl)2-(γ-Glu)-CO-(CH2)14-CH3)AQ-Aib-EFI-(D-Glu)K((2-[2-(2-Amino-ethoxy)-ethoxy]-acetyl)2-(γ-Glu)-CO-(CH2)14-CH3)…-NH2 (peptide)	> 9950	1.73	102	0.148	98.2	–	–	–	–	–	–	–	–	–	–
YXEGTXTSDXXIXLDXKAQXEFIXXLIKGGPSSGAPPPS (Y-Aib-EGT-αMeF(2F)-TSD-4Pal-Aib-I-αMeL-LD-Orn-K((2-[2-(2-Amino-ethoxy)-ethoxy]-acetyl)2-(γ-Glu)-CO-(CH2)10-CH3)AQ-Aib-EFI-(D-Glu)-αMeY-LIK((2-[2-(2-Amino-ethoxy)-ethoxy]-acetyl)2-(γ-Glu)-CO-(CH2)10-CH3)GGPSSGAPPPS-NH2) [Example 334]	–	–	–	–	–	8.67	0.618	> 9950	0.131	104	0.00987	103	–	–	–
YXEGTXTSDXXIXLDXKAQXEFIXXLIKGGPSSGAPPPS (Y-Aib-EGT-αMeF(2F)-TSD-4Pal-Aib-I-αMeL-LD-Orn-K((2-[2-(2-Amino-ethoxy)-ethoxy]-acetyl)-(γ-Glu)-(10-(4-carboxyphenoxy)decanoyl))AQ-Aib-EFIe-αMeY-LIK((2-[2-(2-Amino-ethoxy)-ethoxy]-acetyl)-(γ-Glu)-(10-(4-carboxyphenoxy)decanoyl))GGPSSGAPPPS-NH2) [Example 361]	–	–	–	–	–	–	–	> 9950	0.58	98.2	0.0121	107	1.44	88.8	43
YXEGTXTSDXXIXLDXKAQXKFIXXLIXGGPSSGAPPPS (Y-Aib-EGT-αMeF(2F)-TSD-4Pal-Aib-I-αMeL-LD-Orn-K((2-[2-(2-Amino-ethoxy)-ethoxy]-acetyl)2-(γ-Glu)-CO-(CH2)12-CO2H)AQ-Aib-K((2-[2-(2-Amino-ethoxy)-ethoxy]-acetyl)2-(γ-Glu)-CO-(CH2)12-CO2H)FI-(D-Glu)-αMeY-LI-Orn-GGPSSGAPPPS-NH2) [Example 406]	–	–	–	–	–	–	–	> 9950	0.351	98.5	0.00896	101	0.527	–	9.21
YXEGTXTSDXXIXLDXKAQXEFIXXLIKGGPSSGAPPPS (Y-Aib-EGT-αMeF(2F)-TSD-4Pal-Aib-I-αMeL-LD-Orn-K((2-[2-(2-Amino-ethoxy)-ethoxy]-acetyl)2-(γ-Glu)-CO-(CH2)12-CO2H)AQ-Aib-EFI-(D-Glu)-αMeY-LIK((2-[2-(2-Amino-ethoxy)-ethoxy]-acetyl)2-(γ-Glu)-CO-(CH2)12-CO2H)GGPSSGAPPPS-NH2) [Example 358]	–	–	–	–	–	–	–	> 10100	0.773	107	0.0137	99.6	2.06	86.2	65.3
YXEGTXTSDXXIXLDXKAQXEFIXXLIKGGPSSGAPPPS (Y-Aib-EGT-αMeF(2F)-TSD-4Pal-Aib-I-αMeL-LD-Orn-K((2-[2-(2-Amino-ethoxy)-ethoxy]-acetyl)2-(10-(4-carboxyphenoxy)decanoyl))AQ-Aib-EFI-(D-Glu)-αMeY-LIK((2-[2-(2-Amino-ethoxy)-ethoxy]-acetyl)2-(10-(4-carboxyphenoxy)decanoyl))GGPSSGAPPPS-NH2) [Example 395]	–	–	–	–	–	–	–	> 9950	0.377	90.8	0.0127	93.1	0.327	57.8	6.26
YXEGTXTSDXXIXLDXKAQXEFIXXLIKGGPSSGAPPPS (Y-Aib-EGT-αMeF(2F)-TSD-4Pal-Aib-I-αMeL-LD-Orn-K((2-[2-(2-Amino-ethoxy)-ethoxy]-acetyl)2-CO-(CH2)12-CO2H)AQ-Aib-EFI-(D-Glu)-αMeY-LIK((2-[2-(2-Amino-ethoxy)-ethoxy]-acetyl)2-CO-(CH2)12-CO2H)GGPSSGAPPPS-NH2) [Example 387]	–	–	–	–	–	–	–	> 9950	0.32	101	0.0137	102	0.278	93	4.4
